Fewer inactive variants are shown than the library holds.
What was measured:
biotinyl-Leu-oxazolone = test: self-aminoacylation, catalytic enhancement (BLO) (fold over background); higher = more active; k-Seq, kA / k0A0; sequences stand for … in GGGAAUGGAUCCACAUCUACGAAUUC…UUCACUGCAGACUUGACGAAGCUG
Method in brief: (§1)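 Catalytic enhancement equals the median kA over the uncatalyzed rate, the latter read from the low-activity peak of a bimodal Gaussian fit. Values of kA came from fitting each sequence's fraction reacted to a pseudo-first-order model, with 1000 bootstraps. Reacted RNA was captured with streptavidin and quantified by triplicate qPCR and Illumina sequencing after 90 minutes at room temperature with 2–1250 μM biotinyl-aminoacyl-oxazolone and 0.43 μM mutagenized RNA pools bearing a 21-nt variable region.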

biotinyl-Ile-oxazolone = test: self-aminoacylation, catalytic enhancement (BIO) (fold over background); higher = more active; k-Seq, kA / k0A0; sequences stand for … in GGGAAUGGAUCCACAUCUACGAAUUC…UUCACUGCAGACUUGACGAAGCUG
Method in brief: as §1

biotinyl-Val-oxazolone = test: self-aminoacylation, catalytic enhancement (BVO) (fold over background); higher = more active; k-Seq, kA / k0A0; sequences stand for … in GGGAAUGGAUCCACAUCUACGAAUUC…UUCACUGCAGACUUGACGAAGCUG
Method in brief: as §1

biotinyl-Trp-oxazolone = test: self-aminoacylation, catalytic enhancement (BWO) (fold over background); higher = more active; k-Seq, kA / k0A0; sequences stand for … in GGGAAUGGAUCCACAUCUACGAAUUC…UUCACUGCAGACUUGACGAAGCUG
Method in brief: as §1

biotinyl-Phe-oxazolone = test: self-aminoacylation, catalytic enhancement (BFO) (fold over background); higher = more active; k-Seq, kA / k0A0; sequences stand for … in GGGAAUGGAUCCACAUCUACGAAUUC…UUCACUGCAGACUUGACGAAGCUG
Method in brief: as §1

biotinyl-Met-oxazolone = test: self-aminoacylation, catalytic enhancement (BMO) (fold over background); higher = more active; k-Seq, kA / k0A0; sequences stand for … in GGGAAUGGAUCCACAUCUACGAAUUC…UUCACUGCAGACUUGACGAAGCUG
Method in brief: as §1

AUCACCCUGGUCAUCGAGUGG [Fam2.1 aminoacylation ribozyme variant]
self-aminoacylation (biotinyl-Leu-oxazolone): 12.7
self-aminoacylation (biotinyl-Ile-oxazolone): 4.14
self-aminoacylation (biotinyl-Val-oxazolone): 5.02
self-aminoacylation (biotinyl-Trp-oxazolone): 10.2
self-aminoacylation (biotinyl-Phe-oxazolone): 41.8
self-aminoacylation (biotinyl-Met-oxazolone): 10.3

AUUACCCUUGUCAUCGAAUGA [Fam2.1 aminoacylation ribozyme variant]
self-aminoacylation (biotinyl-Leu-oxazolone): 0.89
self-aminoacylation (biotinyl-Ile-oxazolone): 0.946
self-aminoacylation (biotinyl-Val-oxazolone): 1.09
self-aminoacylation (biotinyl-Trp-oxazolone): 0.552
self-aminoacylation (biotinyl-Phe-oxazolone): 0.805
self-aminoacylation (biotinyl-Met-oxazolone): 0.839

CUACUUCAAACAAUCGGUGAG [Fam1A.1 aminoacylation ribozyme variant]
self-aminoacylation (biotinyl-Leu-oxazolone): 1.05
self-aminoacylation (biotinyl-Ile-oxazolone): 0.901
self-aminoacylation (biotinyl-Val-oxazolone): 1.03
self-aminoacylation (biotinyl-Trp-oxazolone): 0.907
self-aminoacylation (biotinyl-Phe-oxazolone): 1.5
self-aminoacylation (biotinyl-Met-oxazolone): 1.19

AUUCUCCUAGGUAAUCGGGUG [Fam2.2 aminoacylation ribozyme variant]
self-aminoacylation (biotinyl-Leu-oxazolone): 6.03
self-aminoacylation (biotinyl-Ile-oxazolone): 2.55
self-aminoacylation (biotinyl-Val-oxazolone): 2.45
self-aminoacylation (biotinyl-Trp-oxazolone): 4.29
self-aminoacylation (biotinyl-Phe-oxazolone): 33.1
self-aminoacylation (biotinyl-Met-oxazolone): 4.1

AUUACGCUGGUCAUCGAUUGA [Fam2.1 aminoacylation ribozyme variant]
self-aminoacylation (biotinyl-Leu-oxazolone): 1.24
self-aminoacylation (biotinyl-Ile-oxazolone): 1.18
self-aminoacylation (biotinyl-Val-oxazolone): 1.18
self-aminoacylation (biotinyl-Trp-oxazolone): 1.41
self-aminoacylation (biotinyl-Phe-oxazolone): 0.858
self-aminoacylation (biotinyl-Met-oxazolone): 1.29

AUUACCCAGGUGAUCGAGUGA [Fam2.1 aminoacylation ribozyme variant]
self-aminoacylation (biotinyl-Leu-oxazolone): 4.3
self-aminoacylation (biotinyl-Ile-oxazolone): 2.39
self-aminoacylation (biotinyl-Val-oxazolone): 2.33
self-aminoacylation (biotinyl-Trp-oxazolone): 6.02
self-aminoacylation (biotinyl-Phe-oxazolone): 29.3
self-aminoacylation (biotinyl-Met-oxazolone): 4.68

AUUCACCUAGGUCAGAGGGUG [Fam2.2 aminoacylation ribozyme variant]
self-aminoacylation (biotinyl-Leu-oxazolone): 1.49
self-aminoacylation (biotinyl-Ile-oxazolone): 1.1
self-aminoacylation (biotinyl-Val-oxazolone): 1.14
self-aminoacylation (biotinyl-Trp-oxazolone): 1.68
self-aminoacylation (biotinyl-Phe-oxazolone): 4.38
self-aminoacylation (biotinyl-Met-oxazolone): 1.36

AUUGACCUAGGUCGUCGGGUG [Fam2.2 aminoacylation ribozyme variant]
self-aminoacylation (biotinyl-Leu-oxazolone): 1.6
self-aminoacylation (biotinyl-Ile-oxazolone): 1.78
self-aminoacylation (biotinyl-Val-oxazolone): 1.81
self-aminoacylation (biotinyl-Trp-oxazolone): 2.2
self-aminoacylation (biotinyl-Phe-oxazolone): 10.2
self-aminoacylation (biotinyl-Met-oxazolone): 1.44

AGUACCCUGGUCAUCGAGCGA [Fam2.1 aminoacylation ribozyme variant]
self-aminoacylation (biotinyl-Leu-oxazolone): 2.28
self-aminoacylation (biotinyl-Ile-oxazolone): 1.94
self-aminoacylation (biotinyl-Val-oxazolone): 1.9
self-aminoacylation (biotinyl-Trp-oxazolone): 1.89
self-aminoacylation (biotinyl-Phe-oxazolone): 1.16
self-aminoacylation (biotinyl-Met-oxazolone): 2.19

CCCCACUUCAAGCAAUCGGCC [Fam1B.1 aminoacylation ribozyme variant]
self-aminoacylation (biotinyl-Leu-oxazolone): 2.75
self-aminoacylation (biotinyl-Ile-oxazolone): 2.74
self-aminoacylation (biotinyl-Val-oxazolone): 3.8
self-aminoacylation (biotinyl-Trp-oxazolone): 11.3
self-aminoacylation (biotinyl-Phe-oxazolone): 20.8
self-aminoacylation (biotinyl-Met-oxazolone): 3.04

AUUCACCUACGUCAUCGGUUG [Fam2.2 aminoacylation ribozyme variant]
self-aminoacylation (biotinyl-Leu-oxazolone): 0.647
self-aminoacylation (biotinyl-Ile-oxazolone): 0.789
self-aminoacylation (biotinyl-Val-oxazolone): 1.05
self-aminoacylation (biotinyl-Trp-oxazolone): 0.436
self-aminoacylation (biotinyl-Phe-oxazolone): 0.512
self-aminoacylation (biotinyl-Met-oxazolone): 0.738

CUACAUCAAACAAUCGGUCUC [Fam1A.1 aminoacylation ribozyme variant]
self-aminoacylation (biotinyl-Leu-oxazolone): 0.532
self-aminoacylation (biotinyl-Ile-oxazolone): 0.575
self-aminoacylation (biotinyl-Val-oxazolone): 0.779
self-aminoacylation (biotinyl-Trp-oxazolone): 0.882
self-aminoacylation (biotinyl-Phe-oxazolone): 1.64
self-aminoacylation (biotinyl-Met-oxazolone): 0.683

CCACACUCGAAGCAAUCGGUC [Fam1B.1 aminoacylation ribozyme variant]
self-aminoacylation (biotinyl-Leu-oxazolone): 0.764
self-aminoacylation (biotinyl-Ile-oxazolone): 1.2
self-aminoacylation (biotinyl-Val-oxazolone): 1.11
self-aminoacylation (biotinyl-Trp-oxazolone): 0.864
self-aminoacylation (biotinyl-Phe-oxazolone): 1.07
self-aminoacylation (biotinyl-Met-oxazolone): 1.1

AUUACCCUGGUCAUACAGUGA [Fam2.1 aminoacylation ribozyme variant]
self-aminoacylation (biotinyl-Leu-oxazolone): 4.57
self-aminoacylation (biotinyl-Ile-oxazolone): 2.91
self-aminoacylation (biotinyl-Val-oxazolone): 3.03
self-aminoacylation (biotinyl-Trp-oxazolone): 5.95
self-aminoacylation (biotinyl-Phe-oxazolone): 14.8
self-aminoacylation (biotinyl-Met-oxazolone): 4.03

CUACUUCAACCAAACGGUCUG [Fam1A.1 aminoacylation ribozyme variant]
self-aminoacylation (biotinyl-Leu-oxazolone): 0.871
self-aminoacylation (biotinyl-Ile-oxazolone): 0.745
self-aminoacylation (biotinyl-Val-oxazolone): 0.86
self-aminoacylation (biotinyl-Trp-oxazolone): 0.55
self-aminoacylation (biotinyl-Phe-oxazolone): 0.71
self-aminoacylation (biotinyl-Met-oxazolone): 0.704

AAGUUUGCAAAAAGUCGCAAG [Fam3.1 aminoacylation ribozyme variant]
self-aminoacylation (biotinyl-Leu-oxazolone): 0.938
self-aminoacylation (biotinyl-Ile-oxazolone): 0.902
self-aminoacylation (biotinyl-Val-oxazolone): 0.733
self-aminoacylation (biotinyl-Trp-oxazolone): 0.831
self-aminoacylation (biotinyl-Phe-oxazolone): 1.72
self-aminoacylation (biotinyl-Met-oxazolone): 1.07

CCACAUUGCAAGCAAUCGGUC [Fam1B.1 aminoacylation ribozyme variant]
self-aminoacylation (biotinyl-Leu-oxazolone): 1.87
self-aminoacylation (biotinyl-Ile-oxazolone): 1.75
self-aminoacylation (biotinyl-Val-oxazolone): 1.68
self-aminoacylation (biotinyl-Trp-oxazolone): 1.58
self-aminoacylation (biotinyl-Phe-oxazolone): 1.99
self-aminoacylation (biotinyl-Met-oxazolone): 1.67

AUUACCCUGGUCAGCGAGUGA [Fam2.1 aminoacylation ribozyme variant]
self-aminoacylation (biotinyl-Leu-oxazolone): 4.71
self-aminoacylation (biotinyl-Ile-oxazolone): 2.92
self-aminoacylation (biotinyl-Val-oxazolone): 3.01
self-aminoacylation (biotinyl-Trp-oxazolone): 5.36
self-aminoacylation (biotinyl-Phe-oxazolone): 16.6
self-aminoacylation (biotinyl-Met-oxazolone): 4.42

UAUUUUGCUAAUAGUCGCAAG [Fam3.1 aminoacylation ribozyme variant]
self-aminoacylation (biotinyl-Leu-oxazolone): 1.31
self-aminoacylation (biotinyl-Ile-oxazolone): 1.75
self-aminoacylation (biotinyl-Val-oxazolone): 1.52
self-aminoacylation (biotinyl-Trp-oxazolone): 1.47
self-aminoacylation (biotinyl-Phe-oxazolone): 1.99
self-aminoacylation (biotinyl-Met-oxazolone): 1.65

CUACUUCAAACAAUAGGUGUG [Fam1A.1 aminoacylation ribozyme variant]
self-aminoacylation (biotinyl-Leu-oxazolone): 1.25
self-aminoacylation (biotinyl-Ile-oxazolone): 1.07
self-aminoacylation (biotinyl-Val-oxazolone): 0.975
self-aminoacylation (biotinyl-Trp-oxazolone): 0.781
self-aminoacylation (biotinyl-Phe-oxazolone): 1.38
self-aminoacylation (biotinyl-Met-oxazolone): 1.22

AUUCACUAAGGUCAUCGGGUG [Fam2.2 aminoacylation ribozyme variant]
self-aminoacylation (biotinyl-Leu-oxazolone): 6.72
self-aminoacylation (biotinyl-Ile-oxazolone): 3.57
self-aminoacylation (biotinyl-Val-oxazolone): 3.66
self-aminoacylation (biotinyl-Trp-oxazolone): 5.99
self-aminoacylation (biotinyl-Phe-oxazolone): 37.7
self-aminoacylation (biotinyl-Met-oxazolone): 5.33

AUUCACCAAGGUCACCGGGUG [Fam2.2 aminoacylation ribozyme variant]
self-aminoacylation (biotinyl-Leu-oxazolone): 9.86
self-aminoacylation (biotinyl-Ile-oxazolone): 5.1
self-aminoacylation (biotinyl-Val-oxazolone): 6.12
self-aminoacylation (biotinyl-Trp-oxazolone): 5.09
self-aminoacylation (biotinyl-Phe-oxazolone): 55.5
self-aminoacylation (biotinyl-Met-oxazolone): 8.25

AAGUUCGCUAAUAGGCGCAAG [Fam3.1 aminoacylation ribozyme variant]
self-aminoacylation (biotinyl-Leu-oxazolone): 1.03
self-aminoacylation (biotinyl-Ile-oxazolone): 1.23
self-aminoacylation (biotinyl-Val-oxazolone): 1.16
self-aminoacylation (biotinyl-Trp-oxazolone): 1.2
self-aminoacylation (biotinyl-Phe-oxazolone): 1.58
self-aminoacylation (biotinyl-Met-oxazolone): 0.965
